Data from patent US6090929.

How the values were obtained:
[1] = target: recombinant fragment of RIIα (RII 1-45); assay: SPR (IAsys), gravin 1526-1780 coupled to the cuvette, RIIα 1-45 at 25 to 150 nM

B1: gravin fragment residues 1526-1780 (protein)
chain: VAIEDLEPENGILELETKSSKLVQNIIQTAVDQFVRTEETATEMLTSELQTQAHVIKADSQDAGQETEKEGEEPQASAQDETPITSAKEESESTAVGQAHSDISKDMSEASEKTMTVEVEGSTVNDQQLEEVVLPSEEEGGGAGTKSVPEDDGHALLAERIEKSLVEPKEDEKGDDVDDPENQNSALADTDASGGLTKESPDTNGPKQKEKEDAQEVELQEGKVHSESDKAITPQAQEELQKQERESAKSELTES
[1]
  Kd: 100 nM
  kon: 160000 M⁻¹ s⁻¹

B2: gravin fragment residues 265-556 (protein)
chain: KEEGEEKQEKEPSKSAESPTSPVTSETGSTFKKFFTQGWAGWRKKTSFRKPKEDEVEASEKKKEQEPEKVDTEEDGKAEVASEKLTASEQAHPQEPAESAHEPRLSAEYEKVELPSEEQVSGSQGPSEEKPAPLATEVFDEKIEVHQEEVVAEVHVSTVEERTEEQKTEVEETAGSVPAEELVGMDAEPQEAEPAKELVKLKETCVSGEDPTQGADLSPDEKVLSKPPEGVVSEVEMLSSQERMKVQGSPLKKLFTSTGLKKLSGKKQKGKRGGGDEESGEHTQVPADSPDS
PKC βII
  IC50 of inhibition of PKC activity toward peptide substrate …: 500 nM
